Assay [1] relates to LPS-induced limulus amoebocyte lysate (LAL) reaction. Nature of the assay: Endotoxin neutralization assay based on anti-LAL test (LAL Kinetic-QCL). The assay is classed as biochemical, Escherichia coli 055:B5. The following applies: for ENC50 (50% endotoxin-neutralizing concentration), inhibition of LPS-induced LAL assay: against 5 EU/ml of LPS. The source says:
The LAL Kinetic-QCL kit utilizes the initial part of the LPS-triggered cascade in limulus amoebocyte lysate to achieve an enzymatic reaction, which catalyses the release of p-nitroaniline from a synthetic substrate, producing a yellow color, which is quantifiable by absorbance at 405nm. The ENC50 (Endotoxin Neutralization Concentration) refers to the peptide concentration required to neutralize 50% of a predetermined quantity of endotoxin. A low ENC50 indicates high potency of the peptide for endotoxin neutralization.
In this assay, peptides of different concentrations were incubated for 1 h at 37° C. with or without an equal volume of LPS in disposable, endotoxin-free borosilicate tubes. Fifty microliters of each mixture was then dispensed into wells of a sterile microtiter plate (Nunclon™ Δsurface, Nunc). Fifty microliters of freshly reconstituted LAL reagent was dispensed into each well.

Assay [2] can be described thus: Surface plasmon resonance (BIAcore 2000, HPA chip) realtime interaction analysis between peptides and LPS. The assay is classed as binding. Particulars: 20 mM Tris-Cl, pH7.3; HPA chip immobilized with lipid A; mean of three independent experiments. The procedure:
Surface plasmon resonance (SPR) analysis of the real time interaction between peptides and LPS was performed with BIAcore 2000 (Pharmacia) using HPA chip (Tan et al, 2000b). The affinity constant was calculated using BIAevaluation software 3.0. The mean values were obtained from three independent experiments.
At 4 μg/ml, both recombinant peptides reached saturation of binding to LPS (FIG. 4), while the chemically synthesized peptide continued linearly and required 20 μg/ml to reach saturation of binding with LPS (data not shown). The EBC50 (Endotoxin Binding Concentration) of the peptide, which achieves 50% of maximum binding to LPS on the ELISA plate, reflects the binding activity of peptide to LPS, with the lower EBC50 indicating higher potency. […] The kinetics of binding of peptides to LPS in 20 mM Tris-Cl, pH7.3, was also measured by SPR analysis with BIAcore 2000 using HPA chip, which was immobilized with lipid A (bioactive moiety of LPS). The Kd values of chemically synthesized S3, rS3-1mer and rS3-4mer are (7.80±2.18)×10^−7 M, (4.74±2.34)×10^−8 M, (1.71±1.86)×10^−8 M, respectively.

Assay [3] deals with LPS-induced hTNF-α secretion in THP-1 cells. Kind of assay: Suppression of LPS-induced hTNF-α secretion in human THP-1 cells. The assay is classed as cell-based. The following applies: for ENC50, concentration to achieve 50% inhibition of LPS-induced hTNF-α production: THP-1 cells incubated with 50 EU/ml of LPS, 6 h. On the procedure: THP-1 cells were cultured at 37° C. in a humidified environment in the presence of 5% CO2. RPMI 1640 medium was supplemented with 10% fetal bovine serum (FBS), penicillin (100 U/ml), and streptomycin (100 μg/ml). The cells were maintained at a density of 2.5×10^5-6 cells/ml. THP-1 monocytes were transformed into macrophages by addition of phorbol myristic acid, PMA (Sigma) at a stock of 0.3 mg/ml in dimethyl sulfoxide to give a final concentration of 30 ng/ml and 0.01% dimethyl sulfoxide. PMA-treated cell suspensions were immediately plated into 96-well microtiter plate at a density of 4×10^5 cells/ml and allowed to differentiate for 48 h at 37° C. The culture medium was removed and the cells were washed twice with serum-free RPMI 1640. Thereafter, the macrophages were stimulated with 50 EU/ml LPS (a specific activity of LPS that has been standardized by LAL test against FDA-approved LPS standards), peptides alone or LPS (preincubated with various concentrations of peptides) and incubated at 37° C. After 6 h, the culture medium was collected and hTNF-α concentration in the supernatants was assayed using ELISA.

The nature of assay [4]: ELISA-based LPS binding assay. Particulars: peptide concentration achieving 50% of maximum binding to LPS on the ELISA plate. Also noted: species or system Escherichia coli 055:B5. The procedure: LPS was coated overnight on 96-well plates. Varying concentrations of peptides were allowed to interact with the immobilized LPS. The amount of bound peptides was determined by rabbit anti-S3 IgG and quantitated by ABTS substrate. The average OD405nm of the triplicate samples were calculated and plotted with the corresponding concentration.
The polysorp 96-well plate (MaxiSorp™, Nunc) was first coated with 100 μl per well of 4 μg/ml (approximately 1 μM) of LPS diluted in pyrogen-free phosphate-buffered saline (PBS). The plate was sealed and incubated overnight at room temperature. The wells were aspirated and washed 4 times with 300 μl wash solution (PBS containing 0.05% Tween-20). The wells were blocked with wash solution containing 2% BSA for 1 h at room temperature. After washing 2 times, varying concentrations of peptides were allowed to interact with bound LPS at room temperature for 3 h. Bound peptides were detected by incubation with rabbit anti-S3 antibody and 1:2000 of goat anti-rabbit antibody conjugated with HRP. Each antibody was incubated for 2 h at 37° C. In the final step, 100 μl of substrate, ABTS (Boehringer Mannheim), was added. The absorbance was measured at 405 nm with reference wavelength at 490 nm.
(In an ELISA, binding on a coated surface is turned into a signal by an enzyme label.)

The mark [5] stands for this setting: compared with rS3-1mer and chemically synthesized S3.

Data on two molecules can be found in US7763704B2, “Sushi peptide multimer” (priority 2003, dated 2010).

“rS3-1mer: recombinant S3 monomer from acid digestion of rS3-4mer, with additional Asp and Pro at the ends, SEQ ID NO:7 (PHAEHKVKIGVEQKYGQFPQGTEVTYTCSGNYFLMD)”: in assay [1], the “ENC50 (50% endotoxin-neutralizing concentration), inhibition of LPS-induced LAL assay” value was 9.2 µg/mL. Moreover, the Kd (commonly the equilibrium constant for the complex coming apart) in assay [2] amounted to 47.4 nM. Also, in assay [3], the “ENC50, concentration to achieve 50% inhibition of LPS-induced hTNF-α production” value worked out at 83.2 µg/mL. For the same molecule, in assay [4], the “EBC50 (Endotoxin Binding Concentration)” value is 1.02 µg/mL.

B1: rS3-4mer: recombinant tetramer of S3 peptide in tandem repeat with Asp-Pro linkers, 18.4 kDa, SEQ ID NO:9 (protein)
chain: PQDPHAEHKVKIGVEQKYGQFPQGTEVTYTCSGNYFLMDPQDPHAEHKVKIGVEQKYGQFPQGTEVTYTCSGNYFLMDPQDPHAEHKVKIGVEQKYGQFPQGTEVTYTCSGNYFLMDPQDPHAEHKVKIGVEQKYGQFPQGTEVTYTCSGNYFLMD
Consider B1, for which, in assay [1], the “ENC50 (50% endotoxin-neutralizing concentration), inhibition of LPS-induced LAL assay” value was found to be 5.4 µg/mL. In addition, the “fold stronger LPS neutralization efficacy than the monomeric peptides (LAL inhibition)” value in assay [1] (setting [5]) is recorded as 2 fold. The same molecule yielded a Kd in assay [2] of 17.1 nM. Further, the “ENC50, concentration to achieve 50% inhibition of LPS-induced hTNF-α production” value in assay [3] was found to be 40.4 µg/mL. Moreover, the “fold higher anti-LPS activity than the monomers (suppression of TNF-α release)” value in assay [3] (setting [5]) is listed as 2 fold. Further, the “EBC50 (Endotoxin Binding Concentration)” value in assay [4] came out at 0.41 µg/mL.
